The target of the test is 40S subunits of uS9/S16-R143G, uS9/S16-R143E and uS9/S16-R144 strains (S. cerevisiae). Put plainly: co-sedimentation + cross-linking; formaldehyde cross-linking, whole cell extracts resolved on 10–30% sucrose gradients, Western blot of the 43/48S PIC (40S) fractions for eIF1, eIF2α and uS7, signals normalised to uS7; also in strains carrying the TIF5-G31R allele (Figure 6A), which reversed the accumulation of eIF2.

In the case of “eukaryotic initiation factor 1 (eIF1) (from UniProt P32911 1-108) (natural protein)”, the fold increase of association against the wild-type strain was in the range of 2.5 to 3 fold.

The values above are taken from paper PMC6344880.
